Assay results reported in PMC2660430.

Biological target: PfOAT (recombinant ornithine aminotransferase) (P. falciparum strain 3D7) (UniProt Q6LFH8)
Sequence (Q6LFH8 whole entry): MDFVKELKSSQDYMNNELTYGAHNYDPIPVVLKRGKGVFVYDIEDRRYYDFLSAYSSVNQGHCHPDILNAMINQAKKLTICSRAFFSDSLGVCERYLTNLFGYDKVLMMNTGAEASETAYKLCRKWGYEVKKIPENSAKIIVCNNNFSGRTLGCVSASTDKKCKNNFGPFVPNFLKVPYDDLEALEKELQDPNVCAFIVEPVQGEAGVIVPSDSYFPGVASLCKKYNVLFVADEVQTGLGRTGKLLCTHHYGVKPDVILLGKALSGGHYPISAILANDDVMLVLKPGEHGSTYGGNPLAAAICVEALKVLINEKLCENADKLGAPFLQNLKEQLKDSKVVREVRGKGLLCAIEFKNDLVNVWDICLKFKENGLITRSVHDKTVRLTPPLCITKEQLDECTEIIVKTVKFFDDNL

- OAT activity (ornithine aminotransferase assay) with equimolar wild type thioredoxin: 75%
Substance: PfTrx1 (wild type thioredoxin) (from UniProt Q7KQL8 1-104) (natural protein)
